Source: US20230331852A1 (OSE IMMUNOTHERAPEUTICS, published 2023)

T1: recombinant human CLEC-1 protein with His Tag (#1704-CL R&D Systems) (human, UniProt Q8NC01 74-280)
T1 construct: Bought protein; also called His-CLEC1; His Clec-1; not shown: His tag
T1 sequence: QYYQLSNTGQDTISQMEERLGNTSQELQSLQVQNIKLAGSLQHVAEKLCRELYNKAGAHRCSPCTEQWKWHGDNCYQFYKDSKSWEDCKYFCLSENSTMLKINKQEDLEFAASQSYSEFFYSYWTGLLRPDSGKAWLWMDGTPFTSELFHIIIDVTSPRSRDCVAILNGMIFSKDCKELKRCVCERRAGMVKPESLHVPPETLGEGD

T2: human CLEC-1A expressed on the cell membrane (human, UniProt Q8NC01 1-280)
T2 construct: Endogenous on human U266 myeloma cells, on monocyte-derived TGFb-DC and macrophages; on CHO cells after transduction with a Clec-1 expressing lentivirus; also called U266 CLEC1; CLEC-1A on U266 cells
T2 sequence: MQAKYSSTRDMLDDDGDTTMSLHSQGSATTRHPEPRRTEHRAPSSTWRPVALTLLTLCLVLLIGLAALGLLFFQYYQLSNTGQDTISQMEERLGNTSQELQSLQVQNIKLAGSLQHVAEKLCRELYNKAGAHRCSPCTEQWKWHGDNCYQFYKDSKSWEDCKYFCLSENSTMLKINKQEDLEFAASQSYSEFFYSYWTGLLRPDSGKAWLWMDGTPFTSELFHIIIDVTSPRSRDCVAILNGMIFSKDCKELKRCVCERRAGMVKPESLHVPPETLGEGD

T3: Fc-CLEC1 labelled with Alexa Fluor 488 (human, Alexa Fluor 488 label (sites not given))
T3 construct: also called Fc-CLEC1-A488; Alexa488-Fc-Clec-1
T3 chain: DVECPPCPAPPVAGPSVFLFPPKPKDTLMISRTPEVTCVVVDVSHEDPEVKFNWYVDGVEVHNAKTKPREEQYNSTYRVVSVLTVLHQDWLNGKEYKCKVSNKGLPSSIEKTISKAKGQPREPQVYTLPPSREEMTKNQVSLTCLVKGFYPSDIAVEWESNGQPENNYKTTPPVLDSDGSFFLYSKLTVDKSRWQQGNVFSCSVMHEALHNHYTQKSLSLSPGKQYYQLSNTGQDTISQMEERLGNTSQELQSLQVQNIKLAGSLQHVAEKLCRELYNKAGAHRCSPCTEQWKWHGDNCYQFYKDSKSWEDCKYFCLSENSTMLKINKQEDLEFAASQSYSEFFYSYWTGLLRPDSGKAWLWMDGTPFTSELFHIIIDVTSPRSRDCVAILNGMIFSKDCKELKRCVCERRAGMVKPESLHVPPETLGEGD


Tests used:
[1] = molecular target: T1, recombinant human CLEC-1 protein with …; assay: Blitz biolayer interferometry, His-CLEC1 on Ni-NTA biosensor, antibody at 20 ug/mL
[2] = molecular target: T2, human CLEC-1A expressed on the cell …; assay: flow cytometry on U266 cells
Procedure: (§1) Method: To measure binding of anti-CLEC1 on human U266 cell lines (pre-blocked with Fcblock to blocking FcR), antibodies at different concentrations were incubated for 30 min at 4° C., and washed before stained 30 min at 4° C. with PE-labelled anti-human IgG (Biolegend; reference 409304). Samples were analyzed on Cytoflex cytofluorometer (Beckman Coulter). The MFI of anti-CLEC1 was compared between all anti-CLEC1 antibodies and percentage of stained cells was analysed in all conditions.

[3] = molecular target: T3, Fc-CLEC1 labelled with Alexa Fluor 488; assay: FACS competition: blocks Fc-CLEC1-A488 (10 nM) binding to CLEC-1 ligand on permeabilised Raji cells; IC50 median
Procedure: (§2) To measure competition, purified anti-Clec antibodies at different concentrations were pre-incubated in Perm Wash Buffer with Alexa488-Fc-Clec-1 for 15 min at room temperature. Pre-incubated mixes were then incubated on permeabilized and Fc-blocked Raji cells for 30 min on ice. Binding on cells were then fixed by PFA 2% in cold PBS for 10 min on ice and analyzed on CytoFlex cytofluorometer (Beckman Coulter France, Villepinte).
(§3) Methods. To measure competition on permeabilised Raji (CytoFix/cytoperm kit, BD Biosciences) which expressed CLEC1 ligand, Fc-CLEC1-labelled A488 which bound specifically to permeabilised Raji was used. To measure competition, Fc-CLEC1 labelled A488 at 10 nM or 20 nM was mixed with mouse anti-hCLEC1 at different concentrations for 15 min at RT then added on these cells for 30 min at 4° C. […] To measure competition on PMBC, we used human PBMC pre-treated by UV for 18 h to obtain apoptotic PBMC, which expressed CLEC1 ligand. Fc-CLEC1-labelled A488 bound specifically apoptotic UV-treated PBMC. To measure competition, Fc-CLEC1 labelled A488 at 10 nM was mixed with mouse anti-hCLEC1 at different concentrations for 15 min at RT then added on these cells for 30 min at 4° C.

[4] = molecular target: T1, recombinant human CLEC-1 protein with …; assay: ELISA on immobilised His-CLEC1 (from FIGURE 14)
Procedure: (§4) Method: The binding activity of the anti-hCLEC1 antibodies was assessed by ELISA (Enzyme-linked immunosorbent assay). […] A second ELISA assays was performed, like above, with immobilization of CLEC1-Fc (OSE Immunotherapeutics) at 2 μg/ml. A third ELISA assays was performed to see the cross-reactivity with mouse CLEC1. Like above, ELISA was made with immobilization of mouse Fc-CLEC1 (OSE Immunotherapeutics) at 2 μg/ml in carbonate buffer instead of His-Clec. Purified antibodies were added at different concentrations to measure binding. […] Control antibody is a commercial anti-CLEC-1A antibody.

[5] = molecular target: T2, human CLEC-1A expressed on the cell …; assay: flow cytometry on CHO-Clec-1 cells (from FIGURE 21)
Procedure: (§5) To measure binding of anti-clec on CHO-Clec-1 cells, human Fc Receptor Binding Inhibitor diluted at 1/200 (BD pharmingen; USA; reference 564220) was first added for 30 min at room-temperature to block human Fc receptors on CHO-Clec-1 cells to reduce background. Then, antibodies were incubated for 30 min at 4° C., and washed before stained 15 min at 4° C. with PE-labelled anti-human IgG Fc (Biolegend; USA; reference 409303). Samples were analyzed on citoflex (Beckman coulter)

[6] = molecular target: T2, human CLEC-1A expressed on the cell …; assay: flow cytometry on U266 cells, PE anti-human IgG; median fluorescence
Procedure: as §1

[7] = molecular target: T2, human CLEC-1A expressed on the cell …; assay: flow cytometry on CHO-Clec-1 cells, revealed with anti-hFc-PE; % positive cells
Procedure: as §5

[8] = molecular target: T1, recombinant human CLEC-1 protein with …; assay: ELISA on immobilised His-CLEC1 (from FIGURE 12)
Procedure: as §4

[9] = molecular target: T2, human CLEC-1A expressed on the cell …; assay: flow cytometry on U266 cells, PE anti-human IgG; % positive cells
Procedure: as §1

[10] = molecular target: T3, Fc-CLEC1 labelled with Alexa Fluor 488; assay: FACS competition: blocks Fc-CLEC1-A488 (10 nM) binding to CLEC-1 ligand on UV-treated PBMC
Procedure: (§6) Competition were also measured on UV pre-treated pro-apoptotic human PBMCs, which can also express the ligand after a treatment under UV radiation for 18 hours. After UV treatment, cells were first washed in cold-PSE and then blocked during 30 min at room temperature with human Fc-block 50-fold diluted in PSE, and then replaced on ice. Purified anti-Clec antibodies at different concentrations were pre-incubated with Alexa488-Fc-Clec-1 in PSE at different concentrations for 15 min at room temperature. Pre-incubated mixes were then incubated on Fc-blocked/SAB (#34005-100, Invitrogen, Illkirch, France) pro-apoptotic PBMCs for 30 min on ice. Binding on cells were then fixed by PFA 2% in cold PBS for 10 min on ice and analyzed on CytoFlex cytofluorometer (Beckman Coulter France, Villepinte).
as §3

[11] = molecular target: T2, human CLEC-1A expressed on the cell …; assay: flow cytometry on CHO-Clec-1 cells, revealed with anti-hFc-PE; median fluorescence
Procedure: as §5

[12] = molecular target: T3, Fc-CLEC1 labelled with Alexa Fluor 488; assay: FACS competition: blocks Fc-CLEC1-A488 (10 nM) binding to CLEC-1 ligand on UV-treated PBMC; % binding
Procedure: as §6, §3

[13] = molecular target: T3, Fc-CLEC1 labelled with Alexa Fluor 488; assay: FACS competition: blocks Fc-CLEC1-A488 (10 nM) binding to CLEC-1 ligand on permeabilised Raji cells; % binding cells
Procedure: as §2, §3

[14] = molecular target: T1, recombinant human CLEC-1 protein with …; assay: BLI (Blitz), CLEC1-His on Ni-NTA biosensor, antibody at 20 ug/mL; chimeric antibody, FIG. 17
Procedure: Analysis was performed with a BLItz System (Fortébio, #C22-2 No 61010-1, Molecular Devices, San José, USA).
The affinity of the anti-hCLEC1 antibodies, was measured with Blitz system (Forté Bio, C22-2 No 61010-1).

[15] = molecular target: T1, recombinant human CLEC-1 protein with …; assay: ELISA on immobilised His-CLEC1, anti-human IgG peroxidase

Binder	Kd [1] [nM]	koff [1] [s⁻¹]	kon [1] [M⁻¹ s⁻¹]	EC50 [2] [µg/mL]	IC50 [3] [nM]	EC50 [4] [µg/mL]	EC50 [5] [µg/mL]	EC50 (read off the curve) [6] [µg/mL]	EC50 (read off the curve) [7] [µg/mL]	EC50 [8] [µg/mL]	EC50 (read off the curve) [9] [µg/mL]	IC50 [10] [µg/mL]	EC50 (read off the curve) [11] [µg/mL]	IC50 (read off the curve) [12] [µg/mL]	IC50 (read off the curve) [13] [nM]	Kd [14] [nM]	EC50 (read off the curve) [15] [µg/mL]
chimeric anti-CLEC-1A antibody 6C5 (antibody, human IgG4 S228P, kappa, V domains shown, also called 6C5chim; 6C5-VHwt-FcG4m / 6C5-VLwt-CLhk) VH: QVQLQQSGPELVKPGASVKMSCKASGYTFTDYVISWVKQKTGQGLEWIGEIYPGSGNTYYNEKFKGKATLTADKSSSTAYIHLSSLTSEDSAVYFCAGGGSSHFDYWGQGTTLTVSS VL: not shown	40.3	0.00179	44500	0.258	7.71	–	0.123	~0.3	~0.1	0.326	~0.2	0.626	~0.1	–	–	–	–
chimeric anti-CLEC-1A antibody 15E3 (antibody, human IgG4 S228P, kappa, V domains shown, also called 15E3chim; 15E3-VHwt-FcG4m / 15E3-VLwt-CLhk) VH: QVQLQQSGPELVKPGASVKMSCKASGFTFTDYVIAWVKVRTGQGLEWIGEIYPGSGSIYYNEKFKGKATLTADKSSNTAYMQLSSLTSEDSAVYFCASSTVVAFDYWGQGTTLTVSS VL: EIVLTQSPTTLAASPGEKIIITCSDSSSISSNYLHWYQQKPGFSPKLLIYGTSNLASGVPARFSGSGSGTTYSLTIGTMEAEDVATYYCQQGSSIPRTFGGGTKLEIKR	108	0.00169	15700	0.251	8.67	–	0.123	–	–	0.0215	–	0.779	–	~1	–	–	~0.02

Second part, the binder after the results:

Kd [1] [nM]	koff [1] [s⁻¹]	kon [1] [M⁻¹ s⁻¹]	EC50 [2] [µg/mL]	IC50 [3] [nM]	EC50 [4] [µg/mL]	EC50 [5] [µg/mL]	EC50 (read off the curve) [6] [µg/mL]	EC50 (read off the curve) [7] [µg/mL]	EC50 [8] [µg/mL]	EC50 (read off the curve) [9] [µg/mL]	IC50 [10] [µg/mL]	EC50 (read off the curve) [11] [µg/mL]	IC50 (read off the curve) [12] [µg/mL]	IC50 (read off the curve) [13] [nM]	Kd [14] [nM]	EC50 (read off the curve) [15] [µg/mL]	Binder
0.448	0.00019	188000	1.12	5.84	0.00846	1.38	–	–	–	–	–	–	–	–	–	–	chimeric anti-CLEC-1A antibody 11H11 (antibody, human IgG4 S228P, kappa, V domains shown, also called 11H11chim; 11H11-VHwt-FcG4m / 11H11-VLwt-CLhk) VH: QIHLVQSGPELKKPGETVKISCKASGYTFTNFGMNWVKQAPGKGLKWMGWINTNTGEPTYADDFKGRFAFSLETSASTAYLQINNLKNEDTATYFCARGAPAWFTYWGQGTLVTVSA VL: DIQMTQSPASLSASVGETVTITCRATENIYSYLAWYQQKQGKSPQFLVYNAKTLAEGMPSRFSGSGSGTQFSLKINILQPEDFGTYYCQHHFGTPLTFGAGTKLELKR
17.4	0.0012	68900	0.0847	13.7	–	–	~0.06	–	0.164	~0.06	1.19	–	~0.8	~10	~10	–	chimeric anti-CLEC-1A antibody 5D1 (antibody, human IgG4 S228P, kappa, V domains shown, also called 5D1chim; 5D1-VHwt-FcG4m / 5D1-VLwt-CLhk) VH: QVQLKESGPGLVAPSQSLSITCTISGFSLTSYGVHWVRQPPGKGLEWLVVIWSDGSTIYNSALKSRLSISKDNSKSQVFLKMNSLQTDDTAMYYCARHGGYYNYFDYWGQGTTLTVSS VL: DIQMNQSPSSLSASLGDTITITCHASQNINVWLSWYQQKPGNIPKLLIYKASNLHTGVPSRFSGSGSGTGFTLTISSLQPEDIATYYCQQGQSYWTFGGGTKLEIKR
